Tests used:
TrCel7A [1] = molecular target: T1, TrCel7A (Trichoderma reesei, UniProt P62694); assay: inhibition of pNPL hydrolysis, absorbance of pNP at […] nm; assay type: biochemical; details: read-out: K i for lactose (μM) ^b; pNPL as substrate, 0.2 mM lactose; competitive; 10 mM sodium acetate, pH 5.0, 20 °C
T1 sequence (P62694 18-513): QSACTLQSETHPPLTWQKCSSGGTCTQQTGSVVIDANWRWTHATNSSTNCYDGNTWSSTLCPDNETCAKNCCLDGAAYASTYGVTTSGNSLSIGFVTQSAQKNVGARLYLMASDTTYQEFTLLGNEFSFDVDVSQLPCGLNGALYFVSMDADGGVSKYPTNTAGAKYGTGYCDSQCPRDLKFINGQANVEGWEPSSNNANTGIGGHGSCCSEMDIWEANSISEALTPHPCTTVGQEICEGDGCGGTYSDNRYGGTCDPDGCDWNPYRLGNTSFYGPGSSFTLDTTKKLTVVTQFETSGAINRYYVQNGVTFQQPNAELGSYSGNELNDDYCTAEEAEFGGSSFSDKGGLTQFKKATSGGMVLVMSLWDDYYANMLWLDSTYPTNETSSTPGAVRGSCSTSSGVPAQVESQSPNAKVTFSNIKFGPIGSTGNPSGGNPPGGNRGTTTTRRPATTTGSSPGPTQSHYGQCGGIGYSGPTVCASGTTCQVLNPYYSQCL

PcCel7D [2] = molecular target: T2, PcCel7D (Phanerodontia chrysosporium, UniProt Q7LIJ0); assay: as above; assay type: biochemical; details: read-out: K i for lactose (μM) ^b; pNPL as substrate, 0.2 mM lactose; competitive; 10 mM sodium acetate, pH 5.0, 20 °C
T2 sequence (Q7LIJ0 19-510): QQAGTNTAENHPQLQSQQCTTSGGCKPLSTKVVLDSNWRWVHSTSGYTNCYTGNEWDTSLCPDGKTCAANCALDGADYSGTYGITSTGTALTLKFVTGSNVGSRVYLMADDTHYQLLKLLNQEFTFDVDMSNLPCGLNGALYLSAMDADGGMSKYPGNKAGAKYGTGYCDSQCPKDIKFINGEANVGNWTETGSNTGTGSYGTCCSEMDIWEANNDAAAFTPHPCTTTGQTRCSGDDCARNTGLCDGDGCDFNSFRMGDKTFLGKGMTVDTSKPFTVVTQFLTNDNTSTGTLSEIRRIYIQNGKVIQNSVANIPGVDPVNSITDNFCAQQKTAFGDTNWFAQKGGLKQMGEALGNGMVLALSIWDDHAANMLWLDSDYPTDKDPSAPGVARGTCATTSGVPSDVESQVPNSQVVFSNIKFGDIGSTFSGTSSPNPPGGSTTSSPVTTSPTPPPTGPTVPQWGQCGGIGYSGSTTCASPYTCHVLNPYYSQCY

PcCel7D [3] = molecular target: T2, PcCel7D; assay: intrinsic protein fluorescence quenching titration; assay type: binding
TrCel7A [4] = molecular target: T3, TrCel7A (Trichoderma reesei, UniProt P62694, E229Q); assay: intrinsic protein fluorescence quenching titration; assay type: binding
T3 sequence (P62694 18-513 E229Q): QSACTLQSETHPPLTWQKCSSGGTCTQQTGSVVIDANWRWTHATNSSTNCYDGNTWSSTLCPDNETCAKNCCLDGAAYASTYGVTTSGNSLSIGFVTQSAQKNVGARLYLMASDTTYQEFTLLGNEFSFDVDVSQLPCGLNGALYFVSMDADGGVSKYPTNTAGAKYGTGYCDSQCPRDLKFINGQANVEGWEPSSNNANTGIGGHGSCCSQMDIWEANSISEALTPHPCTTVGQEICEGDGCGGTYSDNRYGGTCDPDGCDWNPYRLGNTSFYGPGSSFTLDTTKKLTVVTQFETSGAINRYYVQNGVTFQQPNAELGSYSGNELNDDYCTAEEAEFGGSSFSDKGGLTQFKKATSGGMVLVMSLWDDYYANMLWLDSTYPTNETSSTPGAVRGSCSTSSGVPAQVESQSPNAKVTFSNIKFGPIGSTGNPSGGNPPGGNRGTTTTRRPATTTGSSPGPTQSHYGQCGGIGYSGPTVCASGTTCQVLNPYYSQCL

TrCel7A [5] = molecular target: T4, TrCel7A (Trichoderma reesei, UniProt P62694, E234Q); assay: intrinsic protein fluorescence quenching titration; assay type: binding
T4 sequence (P62694 18-513 E234Q): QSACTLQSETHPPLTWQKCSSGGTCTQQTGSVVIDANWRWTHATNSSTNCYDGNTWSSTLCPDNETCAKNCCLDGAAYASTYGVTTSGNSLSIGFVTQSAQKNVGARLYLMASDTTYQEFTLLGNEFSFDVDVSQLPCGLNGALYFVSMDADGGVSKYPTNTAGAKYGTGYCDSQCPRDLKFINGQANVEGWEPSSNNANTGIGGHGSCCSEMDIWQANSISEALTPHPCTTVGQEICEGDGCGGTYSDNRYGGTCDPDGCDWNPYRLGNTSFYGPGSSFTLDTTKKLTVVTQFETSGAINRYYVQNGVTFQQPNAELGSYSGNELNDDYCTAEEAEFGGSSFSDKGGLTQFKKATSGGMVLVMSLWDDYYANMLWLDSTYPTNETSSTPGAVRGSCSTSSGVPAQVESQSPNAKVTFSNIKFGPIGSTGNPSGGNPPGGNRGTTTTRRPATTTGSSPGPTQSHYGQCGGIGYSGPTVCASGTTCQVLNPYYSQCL

TrCel7A [6] = molecular target: T1, TrCel7A; assay: inhibition of MUC hydrolysis, fluorometric; assay type: biochemical
TrCel7A [7] = molecular target: T5, TrCel7A (Trichoderma reesei, UniProt P62694, D231N); assay: intrinsic protein fluorescence quenching titration; assay type: binding
T5 sequence (P62694 18-513 D231N): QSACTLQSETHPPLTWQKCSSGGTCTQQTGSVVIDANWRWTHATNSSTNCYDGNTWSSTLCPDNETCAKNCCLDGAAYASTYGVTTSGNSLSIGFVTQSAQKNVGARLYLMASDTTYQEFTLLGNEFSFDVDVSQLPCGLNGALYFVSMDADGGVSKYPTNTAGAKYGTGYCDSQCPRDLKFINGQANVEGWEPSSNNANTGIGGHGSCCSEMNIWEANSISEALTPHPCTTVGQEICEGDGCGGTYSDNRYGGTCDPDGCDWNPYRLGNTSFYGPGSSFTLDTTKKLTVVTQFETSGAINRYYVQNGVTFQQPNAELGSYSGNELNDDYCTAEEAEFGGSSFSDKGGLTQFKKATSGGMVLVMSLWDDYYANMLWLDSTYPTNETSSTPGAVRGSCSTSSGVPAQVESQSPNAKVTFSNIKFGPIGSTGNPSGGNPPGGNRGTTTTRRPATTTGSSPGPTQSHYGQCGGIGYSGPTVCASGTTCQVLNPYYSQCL

TrCel7A [8] = molecular target: T1, TrCel7A; assay: intrinsic protein fluorescence quenching titration; assay type: binding
purified protein [9] = substrate: O=[N+]([O-])c1ccc(O[C@@H]2O[C@H](CO)[C@@H](O[C@@H]3O[C@H](CO)[C@@H](O)[C@H](O)[C@H]3O)[C@H](O)[C@H]2O)cc1; assay: purified protein; details: 50 mM sodium acetate, pH 5.0, 25 °C
purified protein [10] = substrate: Cc1cc(=O)oc2cc(O[C@@H]3O[C@H](CO)[C@@H](O[C@@H]4O[C@H](CO)[C@@H](O)[C@H](O)[C@H]4O)[C@H](O)[C@H]3O)ccc12; assay: purified protein; details: 50 mM sodium acetate, pH 5.0, 25 °C
purified protein [11] = substrate: [H][C@@]1(O[C@H]2[C@H](O)[C@@H](O)[C@H](Oc3ccc([N+](=O)[O-])cc3)O[C@@H]2CO)O[C@H](CO)[C@H](O)[C@H](O)[C@H]1O; assay: purified protein; details: 50 mM sodium acetate, pH 5.0, 25 °C
purified protein [12] = substrate: O=[N+]([O-])c1ccccc1O[C@@H]1O[C@H](CO)[C@@H](O[C@@H]2O[C@H](CO)[C@@H](O)[C@H](O)[C@H]2O)[C@H](O)[C@H]1O; assay: purified protein; details: 50 mM sodium acetate, pH 5.0, 25 °C

OC[C@H]1O[C@@H](O[C@H]2[C@H](O)[C@@H](O)C(O)O[C@@H]2CO)[C@H](O)[C@@H](O)[C@H]1O (some centres unmarked) [lactose] gave a Ki (TrCel7A [1]) of 180 ± 16 µM and a Ki (PcCel7D [2]) of 183 ± 16 µM.

O=[N+]([O-])c1ccccc1O[C@@H]1O[C@H](CO)[C@@H](O[C@@H]2O[C@H](CO)[C@@H](O)[C@H](O)[C@H]2O)[C@H](O)[C@H]1O [oNPC, o-nitrophenyl-β-D-cellobioside] was tested, and the Kd (PcCel7D [3]) was 110 ± 10 µM, the Kd (TrCel7A [4]) was 4.7 ± 0.4 µM and the Kd (TrCel7A [5]) was 3.9 ± 0.4 µM. The Ki (TrCel7A [6]) was 5.6 ± 0.5 µM, the Kd (TrCel7A [7]) was 7.1 ± 0.7 µM and the Kd (TrCel7A [8]) was 7.4 ± 0.4 µM.

B1: PcCel7D (Phanerodontia chrysosporium) (protein)
chain: QQAGTNTAENHPQLQSQQCTTSGGCKPLSTKVVLDSNWRWVHSTSGYTNCYTGNEWDTSLCPDGKTCAANCALDGADYSGTYGITSTGTALTLKFVTGSNVGSRVYLMADDTHYQLLKLLNQEFTFDVDMSNLPCGLNGALYLSAMDADGGMSKYPGNKAGAKYGTGYCDSQCPKDIKFINGEANVGNWTETGSNTGTGSYGTCCSEMDIWEANNDAAAFTPHPCTTTGQTRCSGDDCARNTGLCDGDGCDFNSFRMGDKTFLGKGMTVDTSKPFTVVTQFLTNDNTSTGTLSEIRRIYIQNGKVIQNSVANIPGVDPVNSITDNFCAQQKTAFGDTNWFAQKGGLKQMGEALGNGMVLALSIWDDHAANMLWLDSDYPTDKDPSAPGVARGTCATTSGVPSDVESQVPNSQVVFSNIKFGDIGSTFSGTSSPNPPGGSTTSSPVTTSPTPPPTGPTVPQWGQCGGIGYSGSTTCASPYTCHVLNPYYSQCY
B1 was tested, and the Km (purified protein [9]) was 1300 ± 160 µM, the kcat (purified protein [9]) was 0.046 ± 0.0021 s⁻¹ and the kcat/Km (purified protein [9]) was 35 M⁻¹ s⁻¹. The Km (purified protein [10]) was 210 ± 20 µM, the kcat (purified protein [10]) was 0.22 ± 0.01 s⁻¹ and the kcat/Km (purified protein [10]) was 1050 M⁻¹ s⁻¹. For the same molecule, the Km (purified protein [11]) was 5500 ± 400 µM, the kcat (purified protein [11]) was 0.17 ± 0.01 s⁻¹ and the kcat/Km (purified protein [11]) was 31 M⁻¹ s⁻¹. It also gave a Km (purified protein [12]) of 3200 ± 100 µM, a kcat (purified protein [12]) of 0.015 ± 0.002 s⁻¹ and a kcat/Km (purified protein [12]) of 4.6 M⁻¹ s⁻¹.

B2: TrCel7A (Trichoderma reesei) (protein)
chain: QSACTLQSETHPPLTWQKCSSGGTCTQQTGSVVIDANWRWTHATNSSTNCYDGNTWSSTLCPDNETCAKNCCLDGAAYASTYGVTTSGNSLSIGFVTQSAQKNVGARLYLMASDTTYQEFTLLGNEFSFDVDVSQLPCGLNGALYFVSMDADGGVSKYPTNTAGAKYGTGYCDSQCPRDLKFINGQANVEGWEPSSNNANTGIGGHGSCCSEMDIWEANSISEALTPHPCTTVGQEICEGDGCGGTYSDNRYGGTCDPDGCDWNPYRLGNTSFYGPGSSFTLDTTKKLTVVTQFETSGAINRYYVQNGVTFQQPNAELGSYSGNELNDDYCTAEEAEFGGSSFSDKGGLTQFKKATSGGMVLVMSLWDDYYANMLWLDSTYPTNETSSTPGAVRGSCSTSSGVPAQVESQSPNAKVTFSNIKFGPIGSTGNPSGGNPPGGNRGTTTTRRPATTTGSSPGPTQSHYGQCGGIGYSGPTVCASGTTCQVLNPYYSQCL
Molecule B2 has a Km (purified protein [10]) of 12 ± 1 µM, a kcat (purified protein [10]) of 0.013 ± 0.001 s⁻¹ and a kcat/Km (purified protein [10]) of 1080 M⁻¹ s⁻¹.
